Assay results taken from the supplement of paper PMC10598134.
± gives the standard deviation.

Assay: collision cross section of modified peptide (TIMS, N2, iRT-aligned); higher = larger / more extended gas-phase ion
How it was run: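 Collision cross section values rest on the Mason-Schamp equation applied to calibrated, run-aligned mobility data from synthetic peptides. Mobility (1/K0) was calibrated with three reference ions and aligned per run to the median iRT peptide deviation, and 1–3 technical replicates of the most abundant feature per charge state were averaged. Data came from a timsTOF Pro/HT in dda-PASEF mode (nitrogen, ~2.4 mbar) after a 120-min nanoflow C18 gradient at 60 °C.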

[1] = charge state: 2, modification: Succinyl
[2] = charge state: 2, modification: Methyl (K)
[3] = charge state: 3, modification: Methyl (K)
[4] = charge state: 2, modification: Phospho (Y)
[5] = charge state: 3, modification: Trimethyl (K)
[6] = charge state: 2, modification: Butyryl
[7] = charge state: 3, modification: Butyryl
[8] = charge state: 3, modification: HexNAc (ST)
[9] = charge state: 2, modification: Hydroxyproline
[10] = charge state: 2, modification: Propionyl
[11] = charge state: 2, modification: Biotin
[12] = charge state: 3, modification: Succinyl
[13] = charge state: 3, modification: Dimethyl (K)
[14] = charge state: 2, modification: HexNAc (ST)
[15] = charge state: 2, modification: Citrullination (R)
[16] = charge state: 3, modification: Citrullination (R)
[17] = charge state: 2, modification: Crotonyl
[18] = charge state: 3, modification: Crotonyl
[19] = charge state: 2, modification: Dimethyl (K)
[20] = charge state: 2, modification: hydroxyisobutyryl
[21] = charge state: 3, modification: hydroxyisobutyryl
[22] = charge state: 2, modification: Glutarylation
[23] = charge state: 2, modification: Methyl (R)
[24] = charge state: 2, modification: Formyl
[25] = charge state: 2, modification: Nitro (Y)

SNEEGSEEKGPEVR [_SNEEGSEEK(Succinyl)GPEVR_]
collision cross section [1]: 403.42 ± 0.55 Å²

DAEAAEATAEGALKAEK [_DAEAAEATAEGALK(Methyl (K))AEK_]
collision cross section [2]: 456.59 ± 2.6 Å² | collision cross section [3]: 536.13 ± 1.5 Å²

VGVEVPDVNIEGPEGKLK [_VGVEVPDVNIEGPEGK(Methyl (K))LK_]
collision cross section [2]: 459.11 ± 16 Å² | collision cross section [3]: 535.61 ± 7.1 Å²

LDYSDFQIVK [_LDY(Phospho (Y))SDFQIVK_]
collision cross section [4]: 374.72 ± 0.79 Å²

VEPGSLESSPGLGRGR [_VEPGSLESSPGLGR(Methyl (R))GR_]
collision cross section (charge state: 3, modification: Methyl (R)): 499.14 ± 2.2 Å²

SDDESSQKDIK [_SDDESSQK(Malonyl)DIK_]
collision cross section (charge state: 2, modification: Malonyl): 372.43 ± 0.63 Å²

SPDEAYAIAKK [_SPDEAYAIAK(GlyGly (K))K_]
collision cross section (charge state: 2, modification: GlyGly (K)): 383.65 ± 0.88 Å² | collision cross section (charge state: 3, modification: GlyGly (K)): 448.77 ± 3 Å²

FSAYIKNSNPALNDNLEK [_FSAYIK(Trimethyl (K))NSNPALNDNLEK_]
collision cross section [5]: 516.88 ± 0.87 Å²

STGLELETPSLVPVKK [_STGLELETPSLVPVK(Butyryl)K_]
collision cross section [6]: 438.73 ± 0.53 Å² | collision cross section [7]: 522.48 ± 2.1 Å²

IPAASAAAMNLASAR [_IPAAS(HexNAc (ST))AAAMNLASAR_]
collision cross section [8]: 504.78 ± 1.3 Å²

GEKGDPGLIGPK [_GEKGDP(Hydroxyproline)GLIGPK_]
collision cross section [9]: 375.69 ± 1.9 Å² | collision cross section (charge state: 3, modification: Hydroxyproline): 437 ± 1.3 Å²

DESFLGKLGGTLAR [_DESFLGK(Butyryl)LGGTLAR_]
collision cross section [6]: 417.73 ± 0.53 Å² | collision cross section [7]: 494.35 ± 3.3 Å²

TTEETSKPK [_TTEETSK(Propionyl)PK_]
collision cross section [10]: 342.02 ± 0.39 Å²

SEASSEFAKK [_SEASSEFAK(Butyryl)K_]
collision cross section [6]: 356.58 ± 1.8 Å²

TLQKQSVVYGGK [_TLQK(Biotin)QSVVYGGK_]
collision cross section [11]: 406.33 Å²

VGTASVLQPVKK [_VGTASVLQPVK(Succinyl)K_]
collision cross section [1]: 383.62 ± 0.87 Å² | collision cross section [12]: 412.94 ± 4.4 Å²

TQDQISNIKYHEEFEK [_TQDQISNIK(Dimethyl (K))YHEEFEK_]
collision cross section [13]: 542.8 ± 0.41 Å²

KVTLSVLSR [_KVT(HexNAc (ST))LSVLSR_]
collision cross section [14]: 375.11 ± 0.13 Å² | collision cross section [8]: 463.47 ± 1 Å²

AAHGRGALAEAAR [_AAHGR(Citrullination (R))GALAEAAR_]
collision cross section [15]: 378.79 ± 0.65 Å² | collision cross section [16]: 458.38 ± 1.8 Å²

LQEKVESAQSEQK [_LQEK(Crotonyl)VESAQSEQK_]
collision cross section [17]: 419.55 ± 0.85 Å² | collision cross section [18]: 502.91 ± 1.6 Å²

VEPIHAVVLPRGK [_VEPIHAVVLPR(Citrullination (R))GK_]
collision cross section [15]: 406.23 ± 0.55 Å² | collision cross section [16]: 492.34 ± 18 Å²

VNVEAPDVNLEGLGGKLK [_VNVEAPDVNLEGLGGK(Dimethyl (K))LK_]
collision cross section [19]: 464.65 Å² | collision cross section [13]: 539.12 ± 0.61 Å²

TPNLYIYSKK [_TPNLYIYSK(Biotin)K_]
collision cross section [11]: 409.6 Å²

DAIHFYNKSLAEHR [_DAIHFYNK(Dimethyl (K))SLAEHR_]
collision cross section [13]: 497.01 ± 1.6 Å²

ASAISIKLGSSK [_ASAISIK(Biotin)LGSSK_]
collision cross section [11]: 410.18 ± 1.1 Å²

SLGEPAAGEGSAKR [_SLGEPAAGEGSAK(Propionyl)R_]
collision cross section [10]: 383.35 ± 1.5 Å² | collision cross section (charge state: 3, modification: Propionyl): 488 ± 0.51 Å²

IINEPTAAAIAYGLDKK [_IINEPTAAAIAYGLDK(hydroxyisobutyryl)K_]
collision cross section [20]: 464.51 ± 4.5 Å² | collision cross section [21]: 564.39 ± 3 Å²

GSYLGGYSAGRGIYSR [_GSYLGGYSAGR(Citrullination (R))GIYSR_]
collision cross section [15]: 429.9 ± 0.2 Å² | collision cross section [16]: 475.97 ± 0.76 Å²

AGPNASIISLKSDK [_AGPNASIISLK(Gluratylation)SDK_]
collision cross section [22]: 416.83 ± 0.49 Å²

IINEPTAAAIAYGLDKK [_IINEPTAAAIAYGLDK(Methyl (K))K_]
collision cross section [2]: 488.76 ± 3.7 Å² | collision cross section [3]: 550.89 ± 0.34 Å²

IYHPNVDK [_IY(Phospho (Y))HPNVDK_]
collision cross section [4]: 353.97 ± 0.065 Å² | collision cross section (charge state: 3, modification: Phospho (Y)): 437.48 Å²

DDSFLGKLGGTLAR [_DDSFLGK(Succinyl)LGGTLAR_]
collision cross section [1]: 412.99 ± 0.37 Å² | collision cross section [12]: 489.32 ± 3.3 Å²

KYEEIDNAPEER [_K(Gluratylation)YEEIDNAPEER_]
collision cross section [22]: 417.33 ± 0.59 Å² | collision cross section (charge state: 3, modification: Glutarylation): 495.54 ± 1 Å²

AQPQDSRGGSK [_AQPQDSR(Methyl (R))GGSK_]
collision cross section [23]: 351.96 ± 2.1 Å²

LDHLAEKFR [_LDHLAEK(hydroxyisobutyryl)FR_]
collision cross section [20]: 375.94 ± 0.8 Å² | collision cross section [21]: 444.1 ± 2 Å²

DAIHFYNKSLAEHR [_DAIHFYNK(Formyl)SLAEHR_]
collision cross section [24]: 447.82 Å² | collision cross section (charge state: 3, modification: Formyl): 498.82 ± 2.2 Å²

SEASSEFAKK [_SEASSEFAK(Crotonyl)K_]
collision cross section [17]: 355.23 ± 0.57 Å²

STCTYVGAAK [_STCTY(Nitro (Y))VGAAK_]
collision cross section [25]: 340.86 ± 0.72 Å²

SNEEGSEEKGPEVR [_SNEEGSEEK(hydroxyisobutyryl)GPEVR_]
collision cross section [20]: 409.53 ± 1.1 Å²

GPPGPPGR [_GPPGPP(Hydroxyproline)GR_]
collision cross section [9]: 291.03 ± 0.88 Å²

LDHLAEKFR [_LDHLAEK(Acetyl (K))FR_]
collision cross section (charge state: 2, modification: Acetyl (K)): 371.59 ± 0.95 Å² | collision cross section (charge state: 3, modification: Acetyl (K)): 438.53 ± 3.2 Å²

IVFSGNLFQHQEDSKK [_IVFSGNLFQHQEDSK(Crotonyl)K_]
collision cross section [17]: 503.03 ± 1.1 Å² | collision cross section [18]: 539.53 ± 1.2 Å²

FLQEFYQDDELGKK [_FLQEFYQDDELGK(Succinyl)K_]
collision cross section [1]: 450.32 ± 0.96 Å²

LQEKVESAQSEQK [_LQEK(Succinyl)VESAQSEQK_]
collision cross section [1]: 417.9 ± 0.86 Å² | collision cross section [12]: 502.42 ± 0.72 Å²

AAINQKLIETGER [_AAINQK(Formyl)LIETGER_]
collision cross section [24]: 399.86 ± 0.2 Å²

IPQEKCILQTDVK [_IPQEK(Methyl (K))CILQTDVK_]
collision cross section [2]: 433.64 ± 1.1 Å² | collision cross section [3]: 464.28 ± 2.7 Å²

DYSAPVNFISAGLKK [_DYSAPVNFISAGLK(Dimethyl (K))K_]
collision cross section [19]: 457.54 ± 1.7 Å² | collision cross section [13]: 517.49 ± 1.2 Å²

AGQKLIDVNHYAK [_AGQK(Trimethyl (K))LIDVNHYAK_]
collision cross section [5]: 474.3 ± 1.8 Å²

IQTKAGEATVK [_IQTK(Propionyl)AGEATVK_]
collision cross section [10]: 369.17 ± 0.33 Å²

RGVGAGAIAK [_R(Methyl (R))GVGAGAIAK_]
collision cross section [23]: 328.76 ± 0.75 Å²

GSLGAQKLANTCFNEIEK [_GSLGAQK(Succinyl)LANTCFNEIEK_]
collision cross section [1]: 470.21 ± 0.66 Å²

AIQLNPSYIR [_AIQLNPSY(Nitro (Y))IR_]
collision cross section [25]: 380.21 ± 0.17 Å²

DLGKFQVATDALK [_DLGK(Butyryl)FQVATDALK_]
collision cross section [6]: 411.4 ± 0.85 Å²

LGSPSGKTGTCR [_LGSPSGK(hydroxyisobutyryl)TGTCR_]
collision cross section [20]: 375.43 Å²

AQPSASLGVGYR [_AQPSAS(HexNAc (ST))LGVGYR_]
collision cross section [14]: 394.91 ± 0.63 Å²

VYIASSSGSTAIKK [_VYIASSSGSTAIK(Biotin)K_]
collision cross section [11]: 429.83 Å²
